Source: patent publication US12091391B2, “Reagents and methods for bioorthogonal labeling of biomolecules in living cells” (Oregon State University, priority 2015, dated 2024)

Assay: UP50 characterization of select synthetases (GFP fluorescence versus Tet-v3.0 concentration)
Type: cell-based, E. coli
Conditions: fluorescence normalized to optical density, amino acid Tet-v3.0 (methyl)
Description: The UP50 value is a measure of amino acid concentration at which cells containing a given synthetase produces half of the maximum amount of unnatural protein containing the amino acid of interest. In this way the UP50 is dependent both on the synthetase and amino acid of interest. This value is obtained by measuring the fluorescence of produced GFP at various concentrations of amino acids and fitting measured values to the curve:
UP is the measured fluorescence, [AA] is the amino acid concentration, and UPmax is the maximum protein produced. The methodology for obtaining UP50 and UPmax values is described below.
Non-inducing media starter cultures containing Tcn (25 μg/mL) and Kn (50 μg/mL) were grown overnight (37° C., 18 hrs). Starter cultures consisted of E. coli DH10B transformed with a pBK plasmid containing the synthetases of interest (R2-40, R2-74, and R2-84) and tRNA, as well as a pALS plasmid containing an amber codon interrupted GFP gene under control of an araBAD promoter. Starters were used to inoculate (30 μL) autoinducing media (3 mL) containing Tcn (25 μg/mL), Kn (50 μg/mL), and Tet-v3.0 at various concentrations. Tet-v3.0 concentrations were varied from 0.005 mM to 1 mM with duplicates for each concentration. As a control, media was inoculated in duplicate containing no amino acid. To aid in dissolution, 30 μL of N,N-dimethyl formamide (DMF) was added to the Tet-v3.0 prior to addition to media.
The fluorescence and optical density of the media was measured after 24, 36, and 48 hrs. The fluorescence normalized to the optical density was plotted across Tet-v3.0 concentrations and used to calculate the UP50 and UPmax for individual synthetases (see FIG. 16. FIG. 16 compares UP50 titration curves for three Tet-v3.0-methyl incorporating synthetases: R2-40, R2-74, and R2-84. UP50 and UPmax values are obtained from the fit of the curves. The R2-74 synthetase was moved into eukaryotic plasmids for protein expression.

| Molecule | UPmax |
| --- | --- |
| R2-40: M. barkeri PylRS synthetase hit for Tet-v3.0: N311G, C313A, K296R (protein, UniProt Q46E77 1-419, looked up, variant N311G C313A K296R) Pyrrolysine--tRNA ligase: MDKKPLDVLISATGLWMSRTGTLHKIKHYEVSRSKIYIEMACGDHLVVNNSRSCRTARAFRHHKYRKTCKRCRVSDEDINNFLTRSTEGKTSVKVKVVSAPKVKKAMPKSVSRAPKPLENPVSAKASTDTSRSVPSPAKSTPNSPVPTSAPAPSLTRSQLDRVEALLSPEDKISLNIAKPFRELESELVTRRKNDFQRLYTNDREDYLGKLERDITKFFVDRDFLEIKSPILIPAEYVERMGINNDTELSKQIFRVDKNLCLRPMLAPTLYNYLRKLDRILPDPIKIFEVGPCYRRESDGKEHLEEFTMVGFAQMGSGCTRENLESLIKEFLDYLEIDFEIVGDSCMVYGDTLDIMHGDLELSSAVVGPVPLDREWGIDKPWIGAGFGLERLLKVMHGFKNIKRASRSESYYNGISTNL | 540 |
| R2-74: M. barkeri PylRS synthetase hit for Tet-v3.0: L270G, N311G, C313S (protein, UniProt Q46E77 1-419, looked up, variant L270G N311G C313S) Pyrrolysine--tRNA ligase: MDKKPLDVLISATGLWMSRTGTLHKIKHYEVSRSKIYIEMACGDHLVVNNSRSCRTARAFRHHKYRKTCKRCRVSDEDINNFLTRSTEGKTSVKVKVVSAPKVKKAMPKSVSRAPKPLENPVSAKASTDTSRSVPSPAKSTPNSPVPTSAPAPSLTRSQLDRVEALLSPEDKISLNIAKPFRELESELVTRRKNDFQRLYTNDREDYLGKLERDITKFFVDRDFLEIKSPILIPAEYVERMGINNDTELSKQIFRVDKNLCLRPMLAPTGYNYLRKLDRILPDPIKIFEVGPCYRKESDGKEHLEEFTMVGFSQMGSGCTRENLESLIKEFLDYLEIDFEIVGDSCMVYGDTLDIMHGDLELSSAVVGPVPLDREWGIDKPWIGAGFGLERLLKVMHGFKNIKRASRSESYYNGISTNL | 400 |
| R2-84: M. barkeri PylRS synthetase hit for Tet-v3.0: L270G, N311G, C313A, R263C (protein, UniProt Q46E77 1-419, looked up, variant L270G N311G C313A R263C) Pyrrolysine--tRNA ligase: MDKKPLDVLISATGLWMSRTGTLHKIKHYEVSRSKIYIEMACGDHLVVNNSRSCRTARAFRHHKYRKTCKRCRVSDEDINNFLTRSTEGKTSVKVKVVSAPKVKKAMPKSVSRAPKPLENPVSAKASTDTSRSVPSPAKSTPNSPVPTSAPAPSLTRSQLDRVEALLSPEDKISLNIAKPFRELESELVTRRKNDFQRLYTNDREDYLGKLERDITKFFVDRDFLEIKSPILIPAEYVERMGINNDTELSKQIFRVDKNLCLCPMLAPTGYNYLRKLDRILPDPIKIFEVGPCYRKESDGKEHLEEFTMVGFAQMGSGCTRENLESLIKEFLDYLEIDFEIVGDSCMVYGDTLDIMHGDLELSSAVVGPVPLDREWGIDKPWIGAGFGLERLLKVMHGFKNIKRASRSESYYNGISTNL | 517 |
